Data reported in US20250171520A1.

Molecular target: human CD63 (human) (UniProt P08962)
Assay: flow cytometry, HEK293 cells endogenously expressing human CD63

Sequence of human CD63 (human) (P08962 2-238 limits assumed): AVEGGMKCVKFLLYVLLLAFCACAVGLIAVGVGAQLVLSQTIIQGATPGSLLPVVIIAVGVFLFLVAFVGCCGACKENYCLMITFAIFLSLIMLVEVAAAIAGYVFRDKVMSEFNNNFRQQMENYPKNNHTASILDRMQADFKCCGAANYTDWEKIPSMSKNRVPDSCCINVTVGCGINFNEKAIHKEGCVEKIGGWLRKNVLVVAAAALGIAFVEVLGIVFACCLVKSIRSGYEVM

Substance	HEK293 (S/N), MFI of antibody over wells with no antibody
Isotype Control 1 (antibody)	1.4
Isotype Control 2 (antibody)	1.5
